Data reported in paper PMC3815026, “Serglycin Is Implicated in the Promotion of Aggressive Phenotype of Breast Cancer Cells” (PLoS ONE, 2013).

Assays:
C1q = target: T1, C1q (UniProt P02745 23-245; P02746 28-253; P02747 29-245); experiment: ELISA; solid phase binding assay: microtiter plates coated with 5 µg/ml serglycin (as GAG content), blocked with 1% BSA; C1q or MBL added at increasing concentrations in 50 mM Hepes pH 7.4, 150 mM NaCl, 2 mM CaCl2, 1 h at RT; bound protein detected with antibodies; KD from the slope of a Scatchard-type plot; settings: both partners purified
T1 construct: complement C1q subcomponent subunit A; complement C1q subcomponent subunit B; complement C1q subcomponent subunit C; also called complement component C1q; purified C1q; source: bought: Sigma-Aldrich; copies: + +
T1 sequence (P02745 23-245, chain 1 of 3): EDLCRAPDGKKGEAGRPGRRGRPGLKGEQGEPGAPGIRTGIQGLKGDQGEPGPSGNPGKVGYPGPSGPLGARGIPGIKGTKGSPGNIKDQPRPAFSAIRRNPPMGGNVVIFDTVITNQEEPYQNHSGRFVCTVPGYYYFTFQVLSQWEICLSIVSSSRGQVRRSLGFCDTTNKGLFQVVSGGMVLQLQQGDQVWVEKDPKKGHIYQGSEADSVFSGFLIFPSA
T1 sequence (P02746 28-253, chain 2 of 3): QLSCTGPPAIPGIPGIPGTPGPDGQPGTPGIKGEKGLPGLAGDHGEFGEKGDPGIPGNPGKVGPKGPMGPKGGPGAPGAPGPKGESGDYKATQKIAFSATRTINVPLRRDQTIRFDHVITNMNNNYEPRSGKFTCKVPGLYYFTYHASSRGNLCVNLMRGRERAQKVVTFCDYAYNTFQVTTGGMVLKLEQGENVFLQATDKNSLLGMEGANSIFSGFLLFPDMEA
T1 sequence (P02747 29-245, chain 3 of 3): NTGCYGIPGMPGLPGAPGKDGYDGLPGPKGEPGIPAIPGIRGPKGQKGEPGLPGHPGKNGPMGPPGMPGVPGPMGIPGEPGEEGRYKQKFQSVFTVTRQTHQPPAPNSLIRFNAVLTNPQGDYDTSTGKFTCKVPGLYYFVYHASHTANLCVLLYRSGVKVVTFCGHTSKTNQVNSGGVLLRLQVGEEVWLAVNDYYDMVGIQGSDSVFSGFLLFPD

mannose-binding lectin = target: T2, mannose-binding lectin (UniProt P11226 21-248); experiment: as above; settings: both partners purified
T2 construct: Neither the species nor the oligomeric state is stated; Human MBL is surmised; also called MBL; source: bought: Statens Serum Institute (Denmark)
T2 sequence (P11226 21-248): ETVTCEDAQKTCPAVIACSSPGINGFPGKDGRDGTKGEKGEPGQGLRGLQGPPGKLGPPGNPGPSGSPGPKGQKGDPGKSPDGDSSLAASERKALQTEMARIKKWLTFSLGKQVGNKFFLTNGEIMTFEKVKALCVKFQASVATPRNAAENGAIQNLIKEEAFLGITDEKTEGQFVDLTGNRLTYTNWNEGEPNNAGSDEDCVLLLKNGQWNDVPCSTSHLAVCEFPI

Kd (C1q): 20 nM | Kd (mannose-binding lectin): 48 nM
B1: Serglycin isolated from conditioned medium of MDA-MB-231 breast cancer cells (total glycanated serglycin) (natural protein, human (endogenous in MDA-MB-231), UniProt P10124 28-158, looked up)
chain: YPTRRARYQWVRCNPDSNSANCLEEKGPMFELLPGESNKIPRLRTDLFPKTRIQDLNRIFPLSEDYSGSGFGSGSGSGSGSGSGFLTEMEQDYQLVDESDAFHDNLRSLDRNLPSDSQDLGQHGLEEDFML
modifications: chondroitin sulfate side chains (4-sulfated 87%, 6-sulfated 10%, non-sulfated 3% disaccharides)
notes: serglycin core protein, secreted proteoglycan of ~250-300 kDa, core protein seen at ~28 kDa after chondroitinase ABC; Proteoglycan: GAG content about 94.5% and core protein about 5.5% of the total mass; also called SG; breast cancer-derived serglycin; source: endogenous, secreted by MDA-MB-231 cells; purified from culture medium (DEAE-Sephacel, Sepharose CL-4B)
